In publication doi:10.1101/2025.04.15.648992:

What was measured:
Test in all cases: SEC
[1] = target: CdaA_(88-273) R203A (Leptospira interrogans str. Fiocruz L1-130)
[2] = target: CdaA_(88-273) S222A (Leptospira interrogans str. Fiocruz L1-130)
[3] = target: CdaA_(88-273) D172A (Leptospira interrogans str. Fiocruz L1-130)

CdaA_(88-273) R203A (domain or fragment)
stoichiometry N [1]: 2

CdaA_(88-273) S222A (domain or fragment)
stoichiometry N [2]: 2

CdaA_(88-273) D172A (domain or fragment)
stoichiometry N [3]: 2
